Assay results as given in paper PMC7530888 (Nucleic Acids Research, 2020).

B1: BRCT domain of MtbLigA, His-tagged (domain or fragment)
chain: SVPRTLAGLTIVVTGSLTGFSRDDAKEAIVARGGKAAGSVSKKTNYVVAGDSPGSKYDKAVELGVPILDEDGFRRLLADGPASRT
B2: GST-tagged MtbXthA (enzyme)
chain: MPDGTIDGGHPQRPASPRLRSPLLRLATWNVNSIRTRLDRVLDWLGRADVDVLAMQETKCPDGQFPALPLFELGYDVAHVGFDQWNGVAIASRVGLDDVRVGFDGQPSWSGKPEVAATTEARALGATCGGIRVWSLYVPNGRALDDPHYTYKLDWLAALRDTAEGWLRDDPAAPIALMGDWNIAPTDDDVWSTEFFAGCTHVSEPERKAFNAIVDAQFTDVVRPFTPGPGVYTYWDYTQLRFPKKQGMRIDFILGSPALAARVMDAQIVREERKGKAPSDHAPVLVDLHAG

Assays:
[1] = biological target: B1; assay: ITC
GST-tagged MtbXthA = biological target: B2; assay: SPR
[2] = biological target: Full-length His-tagged MtbLigA (M. tuberculosis, UniProt P9WNV1 1-691); assay: SPR

Binder | Kd [1] [nM] | other results
YDVAHVGFD [YDV peptide (MtbXthA 75-83)] | 88500 | 
B1 |  | Kd (GST-tagged MtbXthA): 71.4 nM
B2 |  | Kd [2]: 67.7 nM
DGQPSWSGKP [DGQ peptide (MtbXthA 104-113)] | 2470 | 
